{"source": "patent US8017152B2", "about": "“Cores and microcapsules suitable for parenteral administration as well as process for their manufacture” (Stratosphere Pharma AB, priority 2005, dated 2011)", "test": "Protein integrity of encapsulated hGH by size exclusion HPLC (SEC-HPLC): dimer, polymer and aggregate forms", "format": "physicochemical", "conditions": "before encapsulation", "method": "Three batches of maltodextrin microspheres were prepared (50% W/W, 1 ml, 1 ml and 1.8 ml, respectively, in sodium acetate, 10 mM, pH 6.4, 2 mM zinc acetate) in which the GH was suspended manually. The compositions were transferred to Miglyol 829 (10, 20 and 30 ml, respectively), W/O emulsions were created by homogenization (Turrax) and left under refrigeration over night (about 16 hours), then centrifuged (Sorvall SS34, 7000 rpm, 10 min) and washed three times with cold acetone (about 30 g, centrifugation 5 min), allowed to air dry and sieved. The batches were sieved and then pooled. […] The protein quality was determined after centrifugation using HPLC size exlusion chromatography (SEC-HPLC, TSK2000 SWxl, Tosoh Corporation) according to Reslow et al. (supra). […] The fractions were pooled to provide about 0.57 g of cores.\nThe core loading was about 75% on the pooled batches. Protein integrity was determined after suspending the cores in a buffer (50 mM HEPES, 10 mM EDTA, pH 7.3). After gentle mixing for about one hour the cores had dissolved.\nFree flowing single core microcapsules were obtained as evaluated by light microscopy. Protein integrity was determined essentially according to Reslow et al. (supra), including removal of the PLGA coating with a mixture of methylene chloride and acetone."}
{"substance": "Human growth hormone [hGH]", "values": [{"measurement": "dimer content of hGH starting material / before immobilisation", "value": "approximately 2.4%"}, {"measurement": "dimer content of hGH starting material / before immobilisation", "setting": "listed as GH", "value": "about 2.4%"}]}
